The RNAGym collection of RNA variant scans (doi:10.1093/molbev/msab373)

B1: Azoarcus group I ribozyme (parent)
chain: GUGCCUUGCGCCGGGAAACCACGCAAGGGAUGGUGUCAAAUUCGGCGAAACCUAAGCGCCCGCCCGGGCGUAUGGCAACGCCGAGCCAAGCUUCGGCGCCUGCGCCGAUGAAGGUGUAGAGACUAGACGGCACCCACCUAAGGCAAACGCUAUGGUGAAGGCAUAGUCCAGGGAGUGGCGAAAGUCACACAAACCGG

Variants of: B1
Experiment: reverse-splicing fitness (ratio to wild type); higher = more active; in vitro selection; Mg2+ level not given
In short: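 An in vitro group I ribozyme library with randomized positions was T7-transcribed and gel-purified. In triplicate, 10 pmol RNA in EPPS pH 7.5 was reacted with 50 pmoles of a 30-nt RNA substrate for 1 h at 37 °C across several added MgCl2 levels (1–48 mM), then stopped with EDTA. Products were reverse transcribed from a substrate-complementary primer, PCR-amplified and sequenced (HiSeq 4000). Fitness is a variant's read proportion after selection over that before, normalised to wild type.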

| Variant | reverse-splicing fitness |
| --- | --- |
| C82G A111U A120C C150A C169U U176C | 0.0159 |
| C82G A111U A120C C150A C169U U176G | 0.00816 |
| C82G A111U A120C C150A U176A | 0.0138 |
| C82G A111U A120C C150A U176C | 0.0231 |
| C82G A111U A120C C150A U176G | 0.0115 |
| C82G A111U A120C C150G | 0.00875 |
| C82G A111U A120C C150G C169A | 0.00975 |
| C82G A111U A120C C150G C169A U176A | 0.0137 |
| C82G A111U A120C C150G C169A U176C | 0.0141 |
| C82G A111U A120C C150G C169A U176G | 0.00844 |
| C82G A111U A120C C150G C169G | 0.00753 |
| C82G A111U A120C C150G C169G U176A | 0.00766 |
| C82G A111U A120C C150G C169G U176C | 0.00622 |
| C82G A111U A120C C150G C169G U176G | 0.00747 |
| C82G A111U A120C C150G C169U | 0.0106 |
| C82G A111U A120C C150G C169U U176A | 0.00756 |
| C82G A111U A120C C150G C169U U176C | 0.013 |
| C82G A111U A120C C150G C169U U176G | 0.00705 |
| C82G A111U A120C C150G U176A | 0.00531 |
| C82G A111U A120C C150G U176C | 0.009 |
| C82G A111U A120C C150G U176G | 0.00396 |

| Variant | reverse-splicing fitness |
| --- | --- |
| C82G A111U A120C C150U | 0.0329 |
| C82G A111U A120C C150U C169A | 0.0105 |
| C82G A111U A120C C150U C169A U176A | 0.0158 |
| C82G A111U A120C C150U C169A U176C | 0.0138 |
| C82G A111U A120C C150U C169A U176G | 0.00644 |
| C82G A111U A120C C150U C169G | 0.00965 |
| C82G A111U A120C C150U C169G U176A | 0.0159 |
| C82G A111U A120C C150U C169G U176C | 0.0194 |
| C82G A111U A120C C150U C169G U176G | 0.00625 |
| C82G A111U A120C C150U C169U | 0.0125 |
| C82G A111U A120C C150U C169U U176A | 0.0146 |
| C82G A111U A120C C150U C169U U176C | 0.0139 |
| C82G A111U A120C C150U C169U U176G | 0.00768 |
| C82G A111U A120C C150U U176A | 0.0133 |
| C82G A111U A120C C150U U176C | 0.0248 |
| C82G A111U A120C C150U U176G | 0.00892 |
| C82G A111U A120C C169A | 0.00833 |
| C82G A111U A120C C169A U176A | 0.0193 |
| C82G A111U A120C C169A U176C | 0.0224 |
| C82G A111U A120C C169A U176G | 0.00684 |
| C82G A111U A120C C169G | 0.00915 |

| Variant | reverse-splicing fitness |
| --- | --- |
| C82G A111U A120C C169G U176A | 0.0203 |
| C82G A111U A120C C169G U176C | 0.0244 |
| C82G A111U A120C C169G U176G | 0.00577 |
| C82G A111U A120C C169U | 0.0134 |
| C82G A111U A120C C169U U176A | 0.0163 |
| C82G A111U A120C C169U U176C | 0.0166 |
| C82G A111U A120C C169U U176G | 0.00561 |
| C82G A111U A120C U176A | 0.0172 |
| C82G A111U A120C U176C | 0.0303 |
| C82G A111U A120C U176G | 0.00814 |
| C82G A111U A120G | 0.0168 |
| C82G A111U A120G A145C | 0.0134 |
| C82G A111U A120G A145C C150A | 0.00696 |
| C82G A111U A120G A145C C150A C169A | 0.00828 |
| C82G A111U A120G A145C C150A C169A U176A | 0.0145 |
| C82G A111U A120G A145C C150A C169A U176C | 0.00752 |
| C82G A111U A120G A145C C150A C169A U176G | 0.00583 |
| C82G A111U A120G A145C C150A C169G | 0.00827 |
| C82G A111U A120G A145C C150A C169G U176A | 0.0229 |
| C82G A111U A120G A145C C150A C169G U176C | 0.0144 |
| C82G A111U A120G A145C C150A C169G U176G | 0.00516 |

| Variant | reverse-splicing fitness |
| --- | --- |
| C82G A111U A120G A145C C150A C169U | 0.00694 |
| C82G A111U A120G A145C C150A C169U U176A | 0.0211 |
| C82G A111U A120G A145C C150A C169U U176C | 0.0103 |
| C82G A111U A120G A145C C150A C169U U176G | 0.00529 |
| C82G A111U A120G A145C C150A U176A | 0.00962 |
| C82G A111U A120G A145C C150A U176C | 0.0103 |
| C82G A111U A120G A145C C150A U176G | 0.00582 |
| C82G A111U A120G A145C C150G | 0.00659 |
| C82G A111U A120G A145C C150G C169A | 0.00877 |
| C82G A111U A120G A145C C150G C169A U176A | 0.00745 |
| C82G A111U A120G A145C C150G C169A U176C | 0.0077 |
| C82G A111U A120G A145C C150G C169A U176G | 0.00582 |
| C82G A111U A120G A145C C150G C169G | 0.00796 |
| C82G A111U A120G A145C C150G C169G U176A | 0.00853 |
| C82G A111U A120G A145C C150G C169G U176C | 0.00745 |
| C82G A111U A120G A145C C150G C169G U176G | 0.00464 |
| C82G A111U A120G A145C C150G C169U | 0.0084 |
| C82G A111U A120G A145C C150G C169U U176A | 0.0121 |
| C82G A111U A120G A145C C150G C169U U176C | 0.0123 |
| C82G A111U A120G A145C C150G C169U U176G | 0.00569 |
| C82G A111U A120G A145C C150G U176A | 0.0058 |
